For assay [1], the target named is T1, recombinant human fortilin (Strep-tag II), biotinylated (human, UniProt P13693 1-172, biotinylated (sites not given)).
T1 chain: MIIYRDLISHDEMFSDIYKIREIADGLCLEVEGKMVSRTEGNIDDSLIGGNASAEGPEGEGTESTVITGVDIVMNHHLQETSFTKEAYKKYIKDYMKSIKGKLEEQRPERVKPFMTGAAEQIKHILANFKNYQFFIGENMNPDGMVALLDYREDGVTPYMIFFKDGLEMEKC
The experiment in a line: BLI. On the technique in general: In BLI a coated tip is dipped into the sample, and binding shifts an interference pattern.

Assay [2] deals with T1, recombinant human fortilin (Strep-tag …). The assay is described as follows: BLI; dephosphorylated IRE1α.
For assay [3] the target is unchanged. The assay is described as follows: BLI; phosphorylated IRE1α.

The term Kd denotes the equilibrium constant for the complex coming apart.

B1: GST-IRE1α-TM (aa 401-500) (domain or fragment)
chain: EEVINLVDQTSENAPTTVSRDVEEKPAHAPARPEAPVDSMLKDMATIILSTFLLIGWVAFIITYPLSMHQQQQLQHQQFQKELEKIQLLQQQQQQLPFHP
Take B1: the Kd in assay [1] is 4190 µM.

B2: de-phosphorylated IRE1α-Myc-DDK (aa 1-977) (natural protein)
chain: IFGSTSTVTLPETLLFVSTLDGSLHAVSKRTGSIKWTLKEDPVLQVPTHVEEPAFLPDPNDGSLYTLGSKNNEGLTKLPFTIPELVQASPCRSSDGILYMGKKQDIWYVIDLLTGEKQQTLSSAFADSLCPSTSLLYLGRTEYTITMYDTKTRELRWNATYFDYAASLPEDDVDYKMSHFVSNGDGLVVTVDSESGDVLWIQNYASPVVAFYVWQREGLRKVMHINVAVETLRYLTFMSGEVGRITKWKYPFPKETEAKSKLTPTLYVGKYSTSLYASPSMVHEGVAVVPRGSTLPLLEGPQTDGVTIGDKGECVITPSTDVKFDPGLKSKNKLNYLRNYWLLIGHHETPLSASTKMLERFPNNLPKHRENVIPADSEKKSFEEVINLVDQTSENAPTTVSRDVEEKPAHAPARPEAPVDSMLKDMATIILSTFLLIGWVAFIITYPLSMHQQQQLQHQQFQKELEKIQLLQQQQQQLPFHPPGDTAQDGELLDTSGPYSESSGTSSPSTSPRASNHSLCSGSSASKAGSSPSLEQDDGDEETSVVIVGKISFCPKDVLGHGAEGTIVYRGMFDNRDVAVKRILPECFSFADREVQLLRESDEHPNVIRYFCTEKDRQFQYIAIELCAATLQEYVEQKDFAHLGLEPITLLQQTTSGLAHLHSLNIVHRDLKPHNILISMPNAHGKIKAMISDFGLCKKLAVGRHSFSRRSGVPGTEGWIAPEMLSEDCKENPTYTVDIFSAGCVFYYVISEGSHPFGKSLQRQANILLGACSLDCLHPEKHEDVIARELIEKMIAMDPQKRPSAKHVLKHPFFWSLEKQLQFFQDVSDRIEKESLDGPIVKQLERGGRAVVKMDWRENITVPLQTDLRKFRTYKGGSVRDLLRAMRNKKHHYRELPAEVRETLGSLPDDFVCYFTSRFPHLLAHTYRAMELCSHERLFQPYYFHEPPEPQPPVTPDAL
For the molecule B2, the Kd in assay [2] stood at 1.05 µM.

B3: recombinant human phospho-IRE1α-Myc-DDK (aa 1-977) (natural protein)
chain: IFGSTSTVTLPETLLFVSTLDGSLHAVSKRTGSIKWTLKEDPVLQVPTHVEEPAFLPDPNDGSLYTLGSKNNEGLTKLPFTIPELVQASPCRSSDGILYMGKKQDIWYVIDLLTGEKQQTLSSAFADSLCPSTSLLYLGRTEYTITMYDTKTRELRWNATYFDYAASLPEDDVDYKMSHFVSNGDGLVVTVDSESGDVLWIQNYASPVVAFYVWQREGLRKVMHINVAVETLRYLTFMSGEVGRITKWKYPFPKETEAKSKLTPTLYVGKYSTSLYASPSMVHEGVAVVPRGSTLPLLEGPQTDGVTIGDKGECVITPSTDVKFDPGLKSKNKLNYLRNYWLLIGHHETPLSASTKMLERFPNNLPKHRENVIPADSEKKSFEEVINLVDQTSENAPTTVSRDVEEKPAHAPARPEAPVDSMLKDMATIILSTFLLIGWVAFIITYPLSMHQQQQLQHQQFQKELEKIQLLQQQQQQLPFHPPGDTAQDGELLDTSGPYSESSGTSSPSTSPRASNHSLCSGSSASKAGSSPSLEQDDGDEETSVVIVGKISFCPKDVLGHGAEGTIVYRGMFDNRDVAVKRILPECFSFADREVQLLRESDEHPNVIRYFCTEKDRQFQYIAIELCAATLQEYVEQKDFAHLGLEPITLLQQTTSGLAHLHSLNIVHRDLKPHNILISMPNAHGKIKAMISDFGLCKKLAVGRHSFSRRSGVPGTEGWIAPEMLSEDCKENPTYTVDIFSAGCVFYYVISEGSHPFGKSLQRQANILLGACSLDCLHPEKHEDVIARELIEKMIAMDPQKRPSAKHVLKHPFFWSLEKQLQFFQDVSDRIEKESLDGPIVKQLERGGRAVVKMDWRENITVPLQTDLRKFRTYKGGSVRDLLRAMRNKKHHYRELPAEVRETLGSLPDDFVCYFTSRFPHLLAHTYRAMELCSHERLFQPYYFHEPPEPQPPVTPDAL
modifications: phosphorylated (sites not stated for this preparation)
In the case of B3, the Kd in assay [3] was found to be 0.32 µM.

B4: GST-IRE1α-C (aa 468-977) (domain or fragment)
chain: MHQQQQLQHQQFQKELEKIQLLQQQQQQLPFHPPGDTAQDGELLDTSGPYSESSGTSSPSTSPRASNHSLCSGSSASKAGSSPSLEQDDGDEETSVVIVGKISFCPKDVLGHGAEGTIVYRGMFDNRDVAVKRILPECFSFADREVQLLRESDEHPNVIRYFCTEKDRQFQYIAIELCAATLQEYVEQKDFAHLGLEPITLLQQTTSGLAHLHSLNIVHRDLKPHNILISMPNAHGKIKAMISDFGLCKKLAVGRHSFSRRSGVPGTEGWIAPEMLSEDCKENPTYTVDIFSAGCVFYYVISEGSHPFGKSLQRQANILLGACSLDCLHPEKHEDVIARELIEKMIAMDPQKRPSAKHVLKHPFFWSLEKQLQFFQDVSDRIEKESLDGPIVKQLERGGRAVVKMDWRENITVPLQTDLRKFRTYKGGSVRDLLRAMRNKKHHYRELPAEVRETLGSLPDDFVCYFTSRFPHLLAHTYRAMELCSHERLFQPYYFHEPPEPQPPVTPDAL
For B4, the Kd in assay [1] came out at 0.67 µM.
